To fix the notation:
T1: CEA (carcinoembryonic antigen, Biodesign Intl., Saco, Me.) (UniProt P06731 35-685)
T1 construct: also called immobilized CEA
T1 sequence: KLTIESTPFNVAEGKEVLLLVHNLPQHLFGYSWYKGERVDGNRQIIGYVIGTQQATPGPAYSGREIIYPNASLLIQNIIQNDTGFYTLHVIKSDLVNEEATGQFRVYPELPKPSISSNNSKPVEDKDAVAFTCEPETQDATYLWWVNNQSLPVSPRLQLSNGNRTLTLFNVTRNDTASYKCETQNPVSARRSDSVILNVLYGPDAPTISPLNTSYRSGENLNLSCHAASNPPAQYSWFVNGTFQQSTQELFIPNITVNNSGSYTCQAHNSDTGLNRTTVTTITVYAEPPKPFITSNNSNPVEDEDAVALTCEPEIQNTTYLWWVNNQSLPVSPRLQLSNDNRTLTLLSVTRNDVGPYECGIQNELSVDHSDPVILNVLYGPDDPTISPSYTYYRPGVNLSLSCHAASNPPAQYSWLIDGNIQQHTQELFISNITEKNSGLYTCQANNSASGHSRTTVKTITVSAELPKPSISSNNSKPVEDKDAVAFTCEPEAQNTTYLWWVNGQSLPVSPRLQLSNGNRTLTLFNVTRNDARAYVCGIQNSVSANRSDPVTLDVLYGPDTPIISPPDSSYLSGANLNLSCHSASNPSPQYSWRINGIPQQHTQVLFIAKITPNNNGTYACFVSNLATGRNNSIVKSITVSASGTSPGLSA

B1: NA05.6 (CAB1.1) (scFv)
chain: QVKLQQSGAELVKSGGSVKLSCTASGFNIKDSYMHWLRQGPEQGLEWIGWIDPENGDTEYAPKFQGKATFTTDTSSNTAYLQLSSLTSEDTAVYYCNEGTPTGPYYFDYWGQGTTVTVSSGGGGSGGGGSGGGGSENVLTQSPAIMSASPGEKVTITCSASSSVSYMHWFQQKPGTSPKLVIYSTSNLASGVPARFSGSGSGTSYSLTISRMEAEDAATYYCQQRSSYPLTFGAGTKLELKRAATPVSEKQLAEVVANTITPLMKAQSVPGMAVAVIYQGKPHYYTFGKADIAANKPVTPQTLFELGSISKTFTGVLGGDAIARGEISLDDAVTRYWPQLTGKQWQGIRMLDLATYTAGGLPLQVPDEVTDNASLLRFYQNWQPQWKPGTTRLYANASIGLFGALAVKPSGMPYEQAMTTRVLKPLKLDHTWINVPKAEEAHYAWGYRDGKAVRVSPGMLDAQAYGVKTNVQDMANWVMANMAPENVADASLKQGIALAQSRYWRIGSMYQGLGWEMLNWPVEANTVVETSFGNVALAPLPVAEVNPPAPPVKASWVHKTGSTGGFGSYVAFIPEKQIGIVMLANTSYPNPARVEAAYHILEALQ
notes: also called pNA05.6
B2: NA05.8 (scFv)
chain: QVKLQQSGAELVKSGTSVKLSCTASGFNIKDSYMHWLRQGPEQGLEWIGWIDPENGDTEYAPKFQGKATFTTDTSSNTAYLQLSSLTSEDTAVYYCNEGTPTGPYYFDYWGQGTTVTVSSGGGGSGGGGSGGGGSENVLTQSPAIMSASPGEKVTITCSASSSVSYMHWYQQKPGTSPKLWIYSTSNLASGVPARFSGSGSGTSYSLTISRMEAEDAATYYCQQRSSYPLTFGGGTKLELKRAATPVSEKQLAEVVANTITPLMKAQSVPGMAVAVIYQGKPHYYTFGKADIAANKPVTPQTLFELGSISKTFTGVLGGDAIARGEISLDDAVTRYWPQLTGKQWQGIRMLDLATYTAGGLPLQVPDEVTDNASLLRFYQNWQPQWKPGTTRLYANASIGLFGALAVKPSGMPYEQAMTTRVLKPLKLDHTWINVPKAEEAHYAWGYRDGKAVRVSPGMLDAQAYGVKTNVQDMANWVMANMAPENVADASLKQGIALAQSRYWRIGSMYQGLGWEMLNWPVEANTVVETSFGNVALAPLPVAEVNPPAPPVKASWVHKTGSTGGFGSYVAFIPEKQIGIVMLANTSYPNPARVEAAYHILEALQ
B3: NA05.9 (scFv)
chain: QVQLQQSGAELVRPGTSVKLSCTASGFNIKDSYMHWVRQGPGQGLEWIGWIDPENGDTEYAPKFQGKATFTTDTSSNTAYLQLSSLTSEDTAVYYCNEGTPTGPYYFDYWGQGTTVTVSSGGGGSGGGGSGGGGSQNVLTQSPAIVSASPGEKVTITCSASSSVSYMHWFQQKPGTSPKLVIYSTSNLASGVPARFSGSGSGTSYSLTISRMEAEDAATYYCQQRSSYPLTFGGGTKLELKRAATPVSEKQLAEVVANTITPLMKAQSVPGMAVAVIYQGKPHYYTFGKADIAANKPVTPQTLFELGSISKTFTGVLGGDAIARGEISLDDAVTRYWPQLTGKQWQGIRMLDLATYTAGGLPLQVPDEVTDNASLLRFYQNWQPQWKPGTTRLYANASIGLFGALAVKPSGMPYEQAMTTRVLKPLKLDHTWINVPKAEEAHYAWGYRDGKAVRVSPGMLDAQAYGVKTNVQDMANWVMANMAPENVADASLKQGIALAQSRYWRIGSMYQGLGWEMLNWPVEANTVVETSFGNVALAPLPVAEVNPPAPPVKASWVHKTGSTGGFGSYVAFIPEKQIGIVMLANTSYPNPARVEAAYHILEALQ
B4: NA05.10 (scFv)
chain: QVQLQQSGAELVRSGTSVKLSCTASGFNIKDSYMHWVRQGPEQGLEWIGWIDPENGDTEYAPKFQGKATFTTDTSSNTAYLQLSSLTSEDTAVYYCNEGTPTGPYYFDYWGQGTTVTVSSGGGGSGGGGSGGGGSENVLTQSPAIMSASPGEKVTITCSASSSVSYMHWYQQKPGTSPKLVIYSTSNLASGVPARFSGSGSGTSYSLTISRMEAEDAATYYCQQRSSYPLTFGAGTKLELKRAATPVSEKQLAEVVANTITPLMKAQSVPGMAVAVIYQGKPHYYTFGKADIAANKPVTPQTLFELGSISKTFTGVLGGDAIARGEISLDDAVTRYWPQLTGKQWQGIRMLDLATYTAGGLPLQVPDEVTDNASLLRFYQNWQPQWKPGTTRLYANASIGLFGALAVKPSGMPYEQAMTTRVLKPLKLDHTWINVPKAEEAHYAWGYRDGKAVRVSPGMLDAQAYGVKTNVQDMANWVMANMAPENVADASLKQGIALAQSRYWRIGSMYQGLGWEMLNWPVEANTVVETSFGNVALAPLPVAEVNPPAPPVKASWVHKTGSTGGFGSYVAFIPEKQIGIVMLANTSYPNPARVEAAYHILEALQ
B5: NA08.64 (scFv)
chain: QVQLQQSGAELVKSGGSVKLSCTASGFNIKDSYMHWVRQGPEQGLEWIGWIDPENGDTEYAPKFDGKATFTTDTSSNTAYLQLSSLTSEDTAVYYCNEGTPTGPYYFDYWGQGTTVTVSSGGGGSGGGGSGGGGSENVLTQSPAIVSASPGEKVTITCSASSSVSAMHWFQQKPGTSPKLVIYSTSNLASGVPARFSGSGSGTSYSLTISRMEAEDAATYYCQQRSSYPLTFGAGTKLELKRAATPVSEKQLAEVVANTITPLMKAQSVPGMAVAVIYQGKPHYYTFGKADIAANKPVTPQTLFELGSISKTFTGVLGGDAIARGEISLDDAVTRYWPQLTGKQWQGIRMLDLATYTAGGLPLQVPDEVTDNASLLRFYQNWQPQWKPGTTRLYANASIGLFGALAVKPSGMPYEQAMTTRVLKPLKLDHTWINVPKAEEAHYAWGYRDGKAVRVSPGMLDAQAYGVKTNVQDMANWVMANMAPENVADASLKQGIALAQSRYWRIGSMYQGLGWEMLNWPVEANTVVETSFGNVALAPLPVAEVNPPAPPVKASWVHKTGSTGGFGSYVAFIPEKQIGIVMLANTSYPNPARVEAAYHILEALQ
B6: NA08.24 (scFv)
chain: QVQLQQSGAELVKSGGSVKLSCTASGFNIKDSYMHWVRQGPEQGLEWIGWIDPENGDTEYAPKFQGKATFTTDTSSNTAYLQLSSLTSEDTAVYYCNEGTPDGPYYFDYWGQGTTVTVSSGGGGSGGGGSGGGGSENVLTQSPAIVSASPGEKVTITCSASSSVSYMHWFQQKPGTSPKLVIYSTSNLASGVPARFSGSGSGTSYSLTISRMEAEDAATYYCQQRDSYPLTFGAGTKLELKRAATPVSEKQLAEVVANTITPLMKAQSVPGMAVAVIYQGKPHYYTFGKADIAANKPVTPQTLFELGSISKTFTGVLGGDAIARGEISLDDAVTRYWPQLTGKQWQGIRMLDLATYTAGGLPLQVPDEVTDNASLLRFYQNWQPQWKPGTTRLYANASIGLFGALAVKPSGMPYEQAMTTRVLKPLKLDHTWINVPKAEEAHYAWGYRDGKAVRVSPGMLDAQAYGVKTNVQDMANWVMANMAPENVADASLKQGIALAQSRYWRIGSMYQGLGWEMLNWPVEANTVVETSFGNVALAPLPVAEVNPPAPPVKASWVHKTGSTGGFGSYVAFIPEKQIGIVMLANTSYPNPARVEAAYHILEALQ
B7: NA08.45 (scFv)
chain: QVQLQQSGAELVKSGGSVKLSCTASGFNIKDSYMHWVRQGPEQGLEWIGWIDPENGDTEYAPKFQGKATFTTDTSSNTAYLQLSSLTSEDTAVYYCNEGTPDGPYYFDYWGQGTTVTVSSGGGGSGGGGSGGGGSENVLTQSPAIVSASPGEKVTITCSASSSVSAMHWFQQKPGTSPKLVIYSTSNLASGVPARFSGSGSGTSYSLTISRMEAEDAATYYCQQRSSYPLTFGAGTKLELKRAATPVSEKQLAEVVANTITPLMKAQSVPGMAVAVIYQGKPHYYTFGKADIAANKPVTPQTLFELGSISKTFTGVLGGDAIARGEISLDDAVTRYWPQLTGKQWQGIRMLDLATYTAGGLPLQVPDEVTDNASLLRFYQNWQPQWKPGTTRLYANASIGLFGALAVKPSGMPYEQAMTTRVLKPLKLDHTWINVPKAEEAHYAWGYRDGKAVRVSPGMLDAQAYGVKTNVQDMANWVMANMAPENVADASLKQGIALAQSRYWRIGSMYQGLGWEMLNWPVEANTVVETSFGNVALAPLPVAEVNPPAPPVKASWVHKTGSTGGFGSYVAFIPEKQIGIVMLANTSYPNPARVEAAYHILEALQ
B8: NA08.51 (scFv)
chain: QVQLQQSGAELVKSGGSVKLSCTASGFNIKDSYMHWVRQGPEQGLEWIGWIDPENGDTEYAPKFQGKATFTTDTSSNTAYLQLSSLTSEDTAVYYCNEGTPTGHYYFDYWGQGTTVTVSSGGGGSGGGGSGGGGSENVLTQSPAIVSASPGEKVTITCSASSSVSAMHWFQQKPGTSPKLVIYSTSNLASGVPARFSGSGSGTSYSLTISRMEAEDAATYYCQQRSSYPLTFGAGTKLELKRAATPVSEKQLAEVVANTITPLMKAQSVPGMAVAVIYQGKPHYYTFGKADIAANKPVTPQTLFELGSISKTFTGVLGGDAIARGEISLDDAVTRYWPQLTGKQWQGIRMLDLATYTAGGLPLQVPDEVTDNASLLRFYQNWQPQWKPGTTRLYANASIGLFGALAVKPSGMPYEQAMTTRVLKPLKLDHTWINVPKAEEAHYAWGYRDGKAVRVSPGMLDAQAYGVKTNVQDMANWVMANMAPENVADASLKQGIALAQSRYWRIGSMYQGLGWEMLNWPVEANTVVETSFGNVALAPLPVAEVNPPAPPVKASWVHKTGSTGGFGSYVAFIPEKQIGIVMLANTSYPNPARVEAAYHILEALQ

These results are taken from US20110160440A1 (GENENCOR INTERNATIONAL, published 2011).

The target of one assay is T1, CEA (carcinoembryonic antigen, …). The assay can be described thus: CEA-coated plate, bound BLA activity (nitrocefin), cell lysate.
On to B1, for which the binding result is given as “binds”.

On to B2, for which the binding result is recorded as “binds”.

For the molecule B3, the binding result is reported as “binds”.

B4: the binding result is reported as “binds”.

For another assay the target is unchanged. The assay is described as follows: CEA-coated plate at pH 6.5 and pH 7.4, bound BLA activity.
Regarding B5, the binding result is given as “binds”.

B6: the binding result is given as “binds”.

For the molecule B7, the binding result is given as “binds”.

On to B8, for which the binding result is recorded as “binds”.
